Laboratory results reported in patent US20240190989A1 (BEIGENE SWITZERLAND, published 2024).
Residue numbers refer to the chain shown, from its start. Names and notes keep the numbering of the source.

B1: A-CEAxCD137-M3 (Format A with BGA-4712-M3) (bispecific antibody, human IgG1, kappa)
heavy: QVQLVQSGAEVKKPGASVKVSCKASGYIFTSYYLHWVRQAPGQGLEWIGYINPQTGKTSYAQKFQGRVTMTRDTSTSTVYMELSSLRSEDTAVYYCAREYGNYNYPLDYWGQGTLVTVSSASTKGPSVFPLAPSSKSTSGGTAALGCLVKDYFPEPVTVSWNSGALTSGVHTFPAVLQSSGLYSLSSVVTVPSSSLGTQTYICNVNHKPSNTKVDKKVEPKSCDKTHTCPPCPAPPAAGPSVFLFPPKPKDTLMISRTPEVTCVVVDVSHEDPEVKFNWYVDGVEVHNAKTKPREEQYNSTYRVVSVLTVLHQDWLNGKEYKCKVSNKALAAPIEKTISKAKGQPREPQVYTLPPSREEMTKNQVSLTCLVKGFYPSDIAVEWESNGQPENNYKTTPPVLDSDGSFFLYSKLTVDKSRWQQGNVFSCSVMHEALHNHYTQKSLSLSPGKGGGGSEVQLLESGGGLVQPGGSLRLSCAASGFTLSAEDVGWVRQAPGKGLEWVSAILDFGGSTYYAESVKGRFTISRDNAKNTLYLQMSSLRAEDTAVYYCARVVYHAGGGVTFDYWGQGTLVTVSS
light: DIQMTQSPSSLSASVGDRVTITCRASENQYGYLAWYQQKPGKVPKLLIYNYKNLVEGVPSRFSGSGSGTDFTLTISSLQPEDVATYYCQHHLGTPYTFGQGTKVEIKRTVAAPSVFIFPPSDEQLKSGTASVVCLLNNFYPREAKVQWKVDNALQSGNSQESVTEQDSKDSTYSLSSTLTLSKADYEKHKVYACEVTHQGLSSPVTKSFNRGEC
B2: Format A-BGA-7556 (bispecific antibody, human IgG1, kappa)
heavy: B1 heavy with W566R, L571Q
light: B1 light
notes: also called BGA-7556 Format A-CEAxCD137
B3: BGA113K (BGA113 with Y57K in the heavy chain) (antibody, human IgG1, V domains shown)
VH: QVQLVQSGAEVKKPGASVKVSCKASGYIFTSYYLHWVRQAPGQGLEWIGYINPQTGKTSYAQKFQGRVTMTRDTSTSTVYMELSSLRSEDTAVYYCAREYGNYNYPLDYWGQGTLVTVSS
VL: DIQMTQSPSSLSASVGDRVTITCRASENQYGYLAWYQQKPGKVPKLLIYNYKNLVEGVPSRFSGSGSGTDFTLTISSLQPEDVATYYCQHHLGTPYTFGQGTKVEIK

Experiments:
human CD137 ECD-mIgG2a [1] = molecular target: T1, human CD137 ECD-mIgG2a (human); test: SPR, Format A-CEAxCD137; Format A-CEAxCD137, not Fc fusion VH
T1 construct: ECD 24-183 of huCD137 fused to mouse IgG2a Fc; also called huCD137-mIgG2a; huCD137
T1 sequence (chain, as listed by the source limits assumed): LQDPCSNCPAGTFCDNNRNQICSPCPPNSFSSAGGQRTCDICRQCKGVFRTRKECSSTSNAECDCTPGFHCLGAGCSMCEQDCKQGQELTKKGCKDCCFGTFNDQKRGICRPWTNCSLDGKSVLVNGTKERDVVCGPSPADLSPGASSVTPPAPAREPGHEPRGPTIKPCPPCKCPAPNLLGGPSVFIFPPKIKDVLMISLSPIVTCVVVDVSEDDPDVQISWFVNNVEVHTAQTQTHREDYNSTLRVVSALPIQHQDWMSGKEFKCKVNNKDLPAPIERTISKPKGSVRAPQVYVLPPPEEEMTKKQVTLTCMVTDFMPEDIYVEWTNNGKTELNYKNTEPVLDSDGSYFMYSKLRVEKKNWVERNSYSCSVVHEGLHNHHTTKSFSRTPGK

[2] = molecular target: T2, full-length human CD137 on cells (Hut78/huCD137, HEK293 transfectants, JK-NFKB-CD137) (human, UniProt Q07011 24-255); test: flow cytometry on Hut78/huCD137 cells
T2 construct: also called native CD137; TNFRSF9
T2 sequence (Q07011 24-255 limits assumed): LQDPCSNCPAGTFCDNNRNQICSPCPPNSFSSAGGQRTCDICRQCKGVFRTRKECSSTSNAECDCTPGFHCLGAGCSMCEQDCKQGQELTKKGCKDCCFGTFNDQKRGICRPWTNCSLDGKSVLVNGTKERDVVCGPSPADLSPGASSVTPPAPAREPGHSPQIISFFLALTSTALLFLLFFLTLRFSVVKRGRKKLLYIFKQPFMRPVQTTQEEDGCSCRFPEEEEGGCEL

human CD137 ECD-mIgG2a [3] = molecular target: T1, human CD137 ECD-mIgG2a; test: SPR, A-CEAxCD137 format
human CD137 ECD-mIgG2a [4] = molecular target: T1, human CD137 ECD-mIgG2a; test: SPR, Format A-CEAxCD137
[5] = molecular target: T3, CEACAM3 transiently expressed on HEK293 cells (Homo sapiens (Human), UniProt P40198 35-252); test: flow cytometry on transfected HEK293 cells
T3 sequence: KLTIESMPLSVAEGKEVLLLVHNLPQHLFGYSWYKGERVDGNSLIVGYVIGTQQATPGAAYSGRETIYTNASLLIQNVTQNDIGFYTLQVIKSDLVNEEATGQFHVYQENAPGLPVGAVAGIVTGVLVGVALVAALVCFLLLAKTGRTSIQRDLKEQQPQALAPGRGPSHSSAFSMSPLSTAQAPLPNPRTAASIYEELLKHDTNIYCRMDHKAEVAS

[6] = molecular target: T4, CEACAM1 (Cat. No. 10822-H08H, Sino Biological) (Homo sapiens (Human), UniProt P13688 35-428); test: antigen ELISA, antigens coated at 10 µg/ml, anti-human Fc-HRP [panel A]
T4 construct: Bought protein
T4 sequence: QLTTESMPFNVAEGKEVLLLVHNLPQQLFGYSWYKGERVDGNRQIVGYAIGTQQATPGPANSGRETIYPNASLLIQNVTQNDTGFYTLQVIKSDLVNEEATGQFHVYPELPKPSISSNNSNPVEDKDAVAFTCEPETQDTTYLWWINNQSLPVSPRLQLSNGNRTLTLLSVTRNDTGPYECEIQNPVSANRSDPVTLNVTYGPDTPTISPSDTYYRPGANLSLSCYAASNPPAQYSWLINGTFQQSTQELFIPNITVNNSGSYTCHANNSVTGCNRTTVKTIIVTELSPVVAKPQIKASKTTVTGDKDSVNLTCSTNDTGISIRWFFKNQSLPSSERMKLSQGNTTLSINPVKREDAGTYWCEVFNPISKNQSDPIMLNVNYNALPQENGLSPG

[7] = molecular target: T5, human CEACAM6, amino acids 1-320 with C-terminal 6xHis tag (human, UniProt P40199 35-320); test: as above
T5 sequence: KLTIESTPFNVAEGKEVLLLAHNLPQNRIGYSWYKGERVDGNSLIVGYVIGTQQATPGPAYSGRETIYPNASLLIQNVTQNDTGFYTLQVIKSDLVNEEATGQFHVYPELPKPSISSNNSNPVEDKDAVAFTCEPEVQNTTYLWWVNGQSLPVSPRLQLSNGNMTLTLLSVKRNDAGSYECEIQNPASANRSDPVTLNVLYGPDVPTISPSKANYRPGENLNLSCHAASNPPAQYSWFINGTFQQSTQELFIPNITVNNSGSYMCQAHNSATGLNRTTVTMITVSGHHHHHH

[8] = molecular target: T6, CEACAM7 transiently expressed on HEK293 cells (Homo sapiens (Human), UniProt Q14002 36-242); test: flow cytometry on transiently transfected HEK293 cells [panel B]
T6 sequence: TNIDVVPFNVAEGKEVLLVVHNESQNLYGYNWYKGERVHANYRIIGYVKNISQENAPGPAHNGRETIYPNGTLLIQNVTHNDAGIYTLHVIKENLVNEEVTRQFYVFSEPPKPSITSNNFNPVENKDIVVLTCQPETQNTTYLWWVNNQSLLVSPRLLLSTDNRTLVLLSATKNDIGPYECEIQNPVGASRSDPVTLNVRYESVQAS

[9] = molecular target: T7, CEACAM8 transiently expressed on HEK293 cells (Homo sapiens (Human), UniProt P31997 35-320); test: as above
T7 sequence: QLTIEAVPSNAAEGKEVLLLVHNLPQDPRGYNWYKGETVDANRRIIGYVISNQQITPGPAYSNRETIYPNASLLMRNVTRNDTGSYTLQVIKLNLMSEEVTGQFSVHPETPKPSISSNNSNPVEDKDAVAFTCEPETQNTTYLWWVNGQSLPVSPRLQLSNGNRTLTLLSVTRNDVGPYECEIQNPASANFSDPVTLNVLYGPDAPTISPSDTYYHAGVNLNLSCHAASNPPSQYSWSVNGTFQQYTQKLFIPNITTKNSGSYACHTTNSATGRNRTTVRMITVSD

[10] = molecular target: T8, full-length human CEA on cells (MKN45, LOVO, L929/huCEA, CT26/CEA, CT26-OS8-CEA) (human, UniProt P06731 35-685); test: flow cytometry on MKN45 cells, no soluble CEA
T8 construct: also called CEACAM5; native CEA
T8 sequence: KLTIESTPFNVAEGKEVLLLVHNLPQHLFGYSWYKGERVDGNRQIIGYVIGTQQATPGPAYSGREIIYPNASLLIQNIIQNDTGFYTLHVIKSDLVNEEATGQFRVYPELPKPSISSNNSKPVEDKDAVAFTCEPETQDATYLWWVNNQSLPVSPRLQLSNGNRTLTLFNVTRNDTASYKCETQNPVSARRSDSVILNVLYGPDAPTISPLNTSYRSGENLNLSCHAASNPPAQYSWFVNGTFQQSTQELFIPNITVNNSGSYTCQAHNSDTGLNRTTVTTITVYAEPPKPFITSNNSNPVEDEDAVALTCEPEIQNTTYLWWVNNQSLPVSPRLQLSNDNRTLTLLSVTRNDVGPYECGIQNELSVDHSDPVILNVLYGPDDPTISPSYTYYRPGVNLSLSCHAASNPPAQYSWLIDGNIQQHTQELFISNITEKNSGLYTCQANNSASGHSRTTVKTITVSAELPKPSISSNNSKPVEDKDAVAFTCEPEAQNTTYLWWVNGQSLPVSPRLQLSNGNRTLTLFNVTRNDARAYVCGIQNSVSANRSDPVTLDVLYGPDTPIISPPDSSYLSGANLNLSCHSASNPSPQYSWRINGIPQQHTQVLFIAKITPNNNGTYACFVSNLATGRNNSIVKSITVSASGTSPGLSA

Binder	Kd (human CD137 ECD-mIgG2a [1])	EC50 [2]	Kd (human CD137 ECD-mIgG2a [3])	Kd (human CD137 ECD-mIgG2a [4])	binding result [5]	binding result [6]	binding result [7]	binding result [8]	binding result [9]	EC50 (read off the curve) [10]
B1	255 nM	0.52 µg/mL	289 nM	–	–	–	–	–	–	–
B2	–	3.23 µg/mL	649 nM	669 nM	–	–	–	–	–	–
B3	–	–	–	–	no binding (tested: 2 ug/ml)	no binding (tested: not shown)	no binding (tested: not shown)	no binding (tested: 2 µg/ml (not on the sheet))	no binding (tested: 2 µg/ml (not on the sheet))	~0.8 µg/mL
